In the supplement of paper PMC10567573:

B1: CLCN6 (parent)
chain: MAGCRGSLCCCCRWCCCCGERETR
B2: ETS1 (parent)
chain: YVRDRADLNKDKPVIPAAALAGYT

Variants of: B1
Assay: protein stability index of a GFP-peptide fusion (GPS, HEK-293T) (PSI 1-6); higher = more stable
Details: c terminus: a fixed tail appended
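Note: lentivirally expressed fusions sorted by FACS into six bins by GFP to DsRed ratio, PSI derived from sequencing read proportions per bin multiplied by bin number.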

Protein stability index, by site and new letter:
A2: I 2.07; M 1.73; E 2.77; P 1.37; D 2; L 1.33; K 2.68; H 2.81; G 2.1; F 2.2
M1: C 1.98; A 1.91; G 1.86; L 1.39; N 1.56; H 2.14; D 1.78; Q 1.65; P 2.12; K 2.14; S 1.56; E 1.22

Variants of: B2
Assay: as above
Details: c terminus: a fixed tail appended

Protein stability index, by site and new letter:
D11: G 3.03; P 3.65; E 2.5; T 2.16; L 4.14; H 3.35; W 2.56; Q 2.78; C 2.46; Y 2.59; V 3.03; R 2.17; I 2.08; K 1.77; S 2.9; N 2.91; A 2.28; F 2.42; M 2.31
Y23: G 1.73; E 2.3; P 1.47; Q 1.86; I 2.53; D 1.91; C 2.51; N 2.34; K 1.46; S 1.52; V 2.13; F 2.21; R 1.89; A 2.15; H 2.18; L 2.58; W 2.5; T 2.26; M 1.89
I15: Y 1.95; Q 2.57; C 2.84; T 1.91; A 2.8; H 2.29; N 3.26; W 2.77; P 2.63; V 1.56; E 1.77; F 1.8; D 1.93; L 2.16; M 2.7; S 2.36; R 1.86; G 2.09; K 2.26
A17: S 2.25; T 2.11; Y 2.86; N 1.64; V 1.63; W 3.98; E 2.19; K 1.98; G 3.1; F 1.76; L 2.04; Q 1.87; C 2.97; D 1.41; H 2.15; P 1.79; I 2.52; M 1.38
K10: F 3.25; C 2.75; E 1.88; V 1.55; I 2.23; L 2.62; G 2.97; M 2.32; T 2.67; H 2.18; R 2.24; Q 2.55; Y 1.97; W 2.19; A 2.58; S 1.59; D 2.58; N 2.08; P 2.6
T24: D 1.45; I 2.37; Y 2.11; P 2.77; E 2.08; Q 2.69; S 1.98; C 2.47; G 1.69; A 2.37; F 1.84; L 2.7; M 2.67; W 4.5; H 3.26; R 2.1; V 1.74; K 2.81
K12: W 2.43; Q 2.48; C 2.13; A 2.39; N 2.29; R 2.08; T 2.02; Y 1.94; G 2.17; L 2.47; I 2.19; S 2.48; V 2.47; P 1.95; M 1.9; E 1.79; H 2.29; F 2.1; D 2.04
P13: K 2.4; R 3.04; G 2.23; W 2.13; L 2.82; N 2.46; F 2.85; Q 1.63; Y 2.59; H 2.36; V 2.77; M 1.95; E 1.74; C 1.8; D 1.63; A 1.53; I 1.88; S 1.62; T 2.4
P16: S 1.64; H 2.1; D 2.54; A 3.14; G 1.93; M 2.56; K 2.13; E 2.05; N 2.33; C 2.57; F 3.22; V 2.44; Y 2.98; I 2.23; T 2.14; R 3.04; L 2.52; Q 2.37; W 2.19
G22: W 2.55; K 2.18; M 1.63; P 2.01; N 2.15; A 2.8; S 1.66; R 1.69; L 1.85; E 1.77; I 2.29; H 1.63; C 2.39; Q 2.12; D 2.53; V 2.74; Y 1.69; F 2.21; T 2.05
A18: C 2.33; P 3.01; K 2.63; D 2.21; N 2.22; V 1.09; S 2.73; R 1.93; I 3.08; G 2.35; E 1.88; F 1.83; L 2.88; W 2.53; T 1.93; Y 2.19; Q 2.84; H 2.18
V14: S 2.84; L 2.79; N 2.34; I 1.63; A 1.73; E 1.97; W 2.4; H 2.23; G 2.18; F 2.99; K 2.34; M 2.75; Y 1.8; T 2.66; D 2.17; R 2.67; C 2.54; P 1.92; Q 1.4
A21: Y 2.74; S 2.53; W 2.75; V 2.38; P 1.65; L 3.03; K 2.08; I 2.42; E 2.1; F 3.51; Q 1.95; R 2.07; D 2.4; N 2.14; H 2.06; T 2.52; M 1.45; G 1.63
L8: W 2.23; Y 2.9; S 1.72; T 2.44; Q 1.77; V 2.31; R 1.88; P 1.87; N 2.53; M 2.9; I 2.64; K 2.19
N9: R 3.34; F 2.21; V 2.57; P 2.29; E 1.98; K 2.31; D 1.59; T 2.75; M 1.96; Q 1.66; I 2.58; C 2.48; Y 2.84; L 2.81; H 3.44; W 3.77; A 2.17; G 2.29; S 1.77
L20: T 2.12; S 1.82; K 1.48; P 2.41; H 1.89; I 2.04; N 1.94; A 2.06; D 1.55; F 2.8; Q 2.79; V 2.02; M 2.45; Y 3.18; R 2.35; G 2.02; E 1.81; W 3.22; C 2.48
A19: S 1.86; L 1.55; Y 2.13; I 2.14; F 3.59; M 1.63; V 3.93; D 2.07; K 2.9; E 1.91; Q 2.84; G 2.62; P 2.04; N 2.17; H 1.75; W 2.98; R 2.53; T 2.17; C 1.86
